Results published in patent publication US20220267396A1.
Where “and” joins values, the source holds several entries; their conditions need not be identical. Equal values may be shown once.

T1: IL-10 receptor 1 (IL-10R1), IL-10R His-tag protein
T1 sequence (Q13651 22-235, species assumed, looked up): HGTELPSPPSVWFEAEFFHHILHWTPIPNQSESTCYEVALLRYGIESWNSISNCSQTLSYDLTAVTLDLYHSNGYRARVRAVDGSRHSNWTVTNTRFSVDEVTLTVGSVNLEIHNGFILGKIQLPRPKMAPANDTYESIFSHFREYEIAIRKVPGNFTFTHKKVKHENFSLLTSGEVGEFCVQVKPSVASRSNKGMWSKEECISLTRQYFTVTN

B1: IL-10M (NTIG-linker 1-IL-10V), dimeric IL-10 variant fusion protein of Comparative Example 1 (Fc fusion, not shown: a dimerising Fc or GST)
chain: AAGSGGGGGSGGGGSGGGGSSPGQGTQSENSCTHFPGNLPNMLRDLRDAFSRVKTFFQMKDQLDNLLLKESLLEDFKGYLGCQALSEMIQFYLEEVMPQAENQDPDAKAHVNSLGENLKTLRLRLRRCHRFLPCENKSKAVEQVKNAFNKLQEKGIYKAMSEFDIFINYIEAYMTMKIRN
B2: IL-10M-1 (NTIG-linker 1-IL-10Vm), monomeric IL-10 variant fusion protein of Example 1 (Fc fusion)
chain: SHTQPLGVFLFPPKPKDQLMISRTPEVTCVVVDVSQEDPEVQFNWYVDGVEVHNAKTKPREEQFNSTYRVVSVLTVLHQDWLNGKEYKCKVSNKGLPSSIEKTISKAKGQPREPQVYTLPPSQEEMTKNQVSLTCLVKGFYPSDIAVEWESNGQPENNYKTTPPVLDSDGSFFLYSRLTVDKSRWQEGNVFSCSVLHEALHNHYTQKSLSLSLGAAGSGGGGGSGGGGSGGGGSSPGQGTQSENSCTHFPGNLPNMLRDLRDAFSRVKTFFQMKDQLDNLLLKESLLEDFKGYLGCQALSEMIQFYLEEVMPQAENQDPDIKAHVNSLGENLKTLRLRLRRCHRFLPCENGGSGGSGGSKSKAVEQVKNAFNKLQEKGIYKAMSEFDIFINYIEAYMTMKIRN

What was measured:
[1] = molecular target: anti-DNP mouse IgE antibody (Sigma, USA); assay: BLI (Octet K2), average of three runs, fusion protein on sensor, anti-DNP mouse IgE in solution
[2] = molecular target: anti-DNP mouse IgE antibody (Sigma, USA); assay: BLI (Octet K2), fusion protein amine-coupled to AR2G sensor, anti-DNP mouse IgE in solution 50 pM-3.125 nM
[3] = molecular target: anti-DNP mouse IgE antibody (Sigma, USA); assay: BLI (Octet K2), fusion protein on sensor, anti-DNP mouse IgE in solution
[4] = molecular target: T1, IL-10 receptor 1 (IL-10R1), IL-10R His-tag protein; assay: BLI (Octet K2), IL-10R His-tag amine-coupled to AR2G sensor, fusion protein in solution 0-1,000 nM
[5] = molecular target: T1, IL-10 receptor 1 (IL-10R1), IL-10R His-tag protein; assay: BLI (Octet K2), IL-10R His-tag on sensor

Kd [1] | Kd [2] | kon [3] | Kd [4] | koff [4] | kon [4] | fold of KD against Comparative Example 1 (NTIG-IL-10V) [5] | Molecule
0.594 nM | 0.364 nM and 0.478 nM and 0.94 nM | 123000 M⁻¹ s⁻¹ and 149000 M⁻¹ s⁻¹ and 166000 M⁻¹ s⁻¹ |  |  |  |  | FcεRIα-Fc fusion protein not containing IL-10Vm (control) (from UniProt P12319 26-205)
 |  |  | 11.1 nM | 0.0008 s⁻¹ | 71100 M⁻¹ s⁻¹ |  | B1
 |  |  | 29.2 nM | 0.0006 s⁻¹ | 20600 M⁻¹ s⁻¹ | 3 fold | B2
